We go through four molecules from paper PMC4778124, “A continuous sirtuin activity assay without any coupling to enzymatic or chemical reactions” (Scientific Reports, 2016).

*: point of attachment. Myristoyl = CCCCCCCCCCCCCC(=O)*

Substrate in series [1]: CC(=O)N[C@@H](CCC(=O)O)C(=O)N[C@@H](C)C(=O)N[C@@H](CC(C)C)C(=O)N1CCC[C@H]1C(=O)N[C@@H](CCCCN)C(=O)N[C@@H](CCCCNC(=O)CCCCCCCCCCNC(=O)c1ccccc1N)C(=O)N[C@@H](Cc1ccc(O)c([N+](=O)[O-])c1)C(=O)NCC(=O)NCC(N)=O
As to the kind of experiment: purified protein, by the assay type. The following applies: other: Sirt1 500 nM; fluorescence spectrophotometer (footnote a); 37.0 °C.

Substrate in series [2]: CCCCCCCCCCCCCC(=O)NCCCC[C@H](NC(=O)[C@H](CCCCN)NC(=O)[C@@H]1CCCN1C(=O)[C@H](CC(C)C)NC(=O)[C@H](C)NC(=O)[C@H](CCC(=O)O)NC(C)=O)C(=O)N[C@H](C(=O)NCC(=O)NCC(N)=O)[C@@H](C)O
As to the kind of experiment: HPLC based activity assay. The series is classed as biochemical, human. The note with it: other: HPLC; Sirt3 0.1 µM; pH 7.8; 37.0 °C. How it is done: (§1) For the determination of kinetic constants for all sirtuin mediated reactions solutions containing 20 mM TRIS/HCl pH 7.8, 150 mM NaCl, 5 mM MgCl2 (assay-buffer), 500 μM NAD^+ and varying substrate concentrations (0.5–100 μM) were used. Deacylation was started by adding human sirtuin to reach a final concentration of 0.01–0.5 μM. Enzyme-catalyzed reaction was stopped using TFA (1% final concentration) after 1 min to 180 min of incubation at 37 °C depending on substrate reactivity. The cleavage rate of the different TNFα peptide derivatives was analyzed using analytical reversed phase HPLC. 40 to 80 μl of compounds or reaction solutions were injected and separated using a linear gradient from 5% to 95% solvent B within 6min. The product and substrate peaks were quantified using absorbance at 220 nm or 365 nm (absorption of 3-Nitrotyrosyl moiety). The peak areas were integrated and converted to initial velocity rates calculated from the ratio of product area to total peak area. Linear regression of conversions plotted against time yielded reaction rates in μM/min (relative conversion below 20% of substrate). Non-linear regression according to Michaelis-Menten of the reaction rates at different substrate concentrations yielded KM- and kcat-values using the program SigmaPlot 8 (Systat Software, San Jose, USA). All measurements were done in duplicates.
The reactions were performed with 0.1- 0.5 µM sirtuin, 500 µM NAD^+ and 50µM 13/16. All reactions were done in duplicates (n=2).

Substrate in series [3]: CC(=O)N[C@@H](CCC(=O)O)C(=O)N[C@@H](C)C(=O)N[C@@H](CC(C)C)C(=O)N1CCC[C@H]1C(=O)N[C@@H](CCCCN)C(=O)N[C@@H](CCCCNC(=O)CCCCCCCCCCNC(=O)c1ccccc1N)C(=O)N[C@@H](Cc1ccc(O)c([N+](=O)[O-])c1)C(=O)NCC(=O)NCC(N)=O
As to the kind of experiment: Continuous fluorescence assay, substrate kinetics. The series is classed as biochemical, human. The following applies: other: FS (fluorescence spectrometer); Sirt3 0.1 µM; 37.0 °C. Here is the method: The fluorescence measurements were performed on a Hitachi F-4500 fluorescence spectrophotometer (Tokyo, Japan) at λEx = 310 nm and λEm = 405 nm (slitEx = 5 nm, slitEm = 2.5 nm, PMT = 700 V for 3, 4 and 5 as well as slitEx = 10 nm, slitEm = 10 nm, PMT = 950 V for 4a). Each reaction mixture contained assay-buffer, 0.5 mM NAD^+ and various peptide concentrations (0.1–100 μM) and was preincubated for 5 minutes at 37 °C. The reaction was started by adding human sirtuin (0.1–0.5 μM) and observed for 5–10 minutes. Product formation could be monitored by increase of relative fluorescence. This signal was converted into product concentration via calibration lines. The slope of the linear regression of product formation against time yielded the reaction velocity rates in μM/s. KM and kcat were obtained by non-linear regression according to Michaelis-Menten. All measurements were done in duplicates. For determination of reaction velocity rates in μM/s calibration lines were necessary. […] The reaction mixture was analyzed with HPLC, to control if the entire peptide substrate was turned to product. Additionally the mixture was diluted (0.1–25 μM) and measured with Hitachi F-4500 fluorescence spectrophotometer at the same conditions as described above.
The microtiter plate fluorescence measurements were performed on a Tecan Infinite M200 microplate reader (Maennedorf, Switzerland) at λEx = 320 nm and λEm = 408 nm (lag time 9 μs, integration time […], gain 160, 170 or 182). The reactions (total volume 100 μl) were measured in black low-binding 96-well microtiter plates (NUNC). […] The signals were converted into product concentration via calibration lines and the resulting data were evaluated as described above (single fluorescence measurement). […] The reaction mixture for the calibration lines was prepared as described for the single fluorescence measurements. […] The resulting plots were analyzed by a competitive inhibition and non-competitive inhibition model using the program Sigma Plot 8. […] The negative Ki value can be determined as intersection with the X-axis from these plots.

Series [4] deals with human sirtuin 6, His-tagged Sirt6 (1-355) (human) (UniProt Q8N6T7).
Sequence of human sirtuin 6, His-tagged Sirt6 (1-355) (human) (Q8N6T7 whole entry): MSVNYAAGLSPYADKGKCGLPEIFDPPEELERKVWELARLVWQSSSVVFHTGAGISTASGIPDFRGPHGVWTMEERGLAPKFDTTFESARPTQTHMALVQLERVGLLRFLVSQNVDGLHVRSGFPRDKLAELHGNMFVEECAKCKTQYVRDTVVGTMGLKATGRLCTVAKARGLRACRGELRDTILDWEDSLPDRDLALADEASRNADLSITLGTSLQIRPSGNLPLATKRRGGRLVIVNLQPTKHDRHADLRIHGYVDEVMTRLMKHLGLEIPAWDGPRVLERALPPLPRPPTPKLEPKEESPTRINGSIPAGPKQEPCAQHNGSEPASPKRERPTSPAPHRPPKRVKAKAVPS
Substrate in series [5]: CCCCCCCCCCCCCC(=O)NCCCC[C@H](NC(=O)[C@H](CCCCN)NC(=O)[C@@H]1CCCN1C(=O)[C@H](CC(C)C)NC(=O)[C@H](C)NC(=O)[C@H](CCC(=O)O)NC(C)=O)C(=O)N[C@H](C(=O)NCC(=O)NCC(N)=O)[C@@H](C)O
As to the kind of experiment: HPLC based activity assay. The class given is biochemical, human. The note with it: other: HPLC; Sirt5 0.5 µM; pH 7.8; 37.0 °C. How it is done: as §1

B1: Sirt1 (Homo sapiens) (protein)
chain: MADEAALALQPGGSPSAAGADREAASSPAGEPLRKRPRRDGPGLERSPGEPGGAAPEREVPAAARGCPGAAAAALWREAEAEAAAAGGEQEAQATAAAGEGDNGPGLQGPSREPPLADNLYDEDDDDEGEEEEEAAAAAIGYRDNLLFGDEIITNGFHSCESDEEDRASHASSSDWTPRPRIGPYTFVQQHLMIGTDPRTILKDLLPETIPPPELDDMTLWQIVINILSEPPKRKKRKDINTIEDAVKLLQECKKIIVLTGAGVSVSCGIPDFRSRDGIYARLAVDFPDLPDPQAMFDIEYFRKDPRPFFKFAKEIYPGQFQPSLCHKFIALSDKEGKLLRNYTQNIDTLEQVAGIQRIIQCHGSFATASCLICKYKVDCEAVRGDIFNQVVPRCPRCPADEPLAIMKPEIVFFGENLPEQFHRAMKYDKDEVDLLIVIGSSLKVRPVALIPSSIPHEVPQILINREPLPHLHFDVELLGDCDVIINELCHRLGGEYAKLCCNPVKLSEITEKPPRTQKELAYLSELPPTPLHVSEDSSSPERTSPPDSSVIVTLLDQAAKSNDDLDVSESKGCMEEKPQEVQTSRNVESIAEQMENPDLKNVGSSTGEKNERTSVAGTVRKCWPNRVAKEQISRRLDGNQYLFLPPNRYIFHGAEVYSDSEDDVLSSSSCGSNSDSGTCQSPSLEEPMEDESEIEEFYNGLEDEPDVPERAGGAGFGTDGDDQEAINEAISVKQEVTDMNYPSNKS
As for B1, the Km in series [1] was found to be 0.7 ± 0.08 µM.

B2: Sirt3 (Homo sapiens) (protein)
chain: MAFWGWRAAAALRLWGRVVERVEAGGGVGPFQACGCRLVLGGRDDVSAGLRGSHGARGEPLDPARPLQRPPRPEVPRAFRRQPRAAAPSFFFSSIKGGRRSISFSVGASSVVGSGGSSDKGKLSLQDVAELIRARACQRVVVMVGAGISTPSGIPDFRSPGSGLYSNLQQYDLPYPEAIFELPFFFHNPKPFFTLAKELYPGNYKPNVTHYFLRLLHDKGLLLRLYTQNIDGLERVSGIPASKLVEAHGTFASATCTVCQRPFPGEDIRADVMADRVPRCPVCTGVVKPDIVFFGEPLPQRFLLHVVDFPMADLLLILGTSLEVEPFASLTEAVRSSVPRLLINRDLVGPLAWHPRSRDVAQLGDVVHGVESLVELLGWTEEMRDLVQRETGKLDGPDK
notes: made in house
With B2, in series [2], the Michaelis-Menten constant (Km) was determined as 1.6 ± 0.4 µM, the kcat is given as 4.7∙10^-2 ± 0.3∙10^-2 s^-1 and the kcat/Km is listed as 2.95∙10^4 M^-1s^-1. Also, in series [3], the Km is 2.4 ± 0.2 µM, the kcat is on record as 1.2∙10^-2 ± 0.3∙10^-3 s^-1 and the kcat/Km is 5.15∙10^3 M^-1s^-1.

B3: myristoylated TNFα-derived peptide 1a (peptide)
peptide: Ac-EALPKK(Myristoyl)TGG-NH2
SMILES: CCCCCCCCCCCCCC(=O)NCCCC[C@H](NC(=O)[C@H](CCCCN)NC(=O)[C@@H]1CCCN1C(=O)[C@H](CC(C)C)NC(=O)[C@H](C)NC(=O)[C@H](CCC(=O)O)NC(C)=O)C(=O)N[C@H](C(=O)NCC(=O)NCC(N)=O)[C@@H](C)O
Regarding B3, the KM of Sirt6-mediated deacylation, HPLC-based activity assay in series [4] was found to be 6 µM.

B4: Sirt5 (Homo sapiens) (protein)
chain: SSSMADFRKFFAKAKHIVIISGAGVSAESGVPTFRGAGGYWRKWQAQDLATPLAFAHNPSRVWEFYHYRREVMGSKEPNAGHRAIAECETRLGKQGRRVVVITQNIDELHRKAGTKNLLEIHGSLFKTRCTSCGVVAENYKSPICPALSGKGAPEPGTQDASIPVEKLPRCEEAGCGGLLRPHVVWFGENLDPAILEEVDRELAHCDLCLVVGTSSVVYPAAMFAPQVAARGVPVAEFNTETTPATNRFRFHFQGPCGTTLPEALACHENETVS
notes: made in house
Regarding B4, in series [5], the Km was 16.5 ± 3.1 µM, the kcat is 5.7∙10^-3 ± 0.3∙10^-3 s^-1 and the kcat/Km is given as 3.48∙10^2 M^-1s^-1.
